The values that follow come from the supplement of paper PMC9112550, “Optimization of the antimicrobial peptide Bac7 by deep mutational scanning” (BMC Biology, 2022).
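Note: peptides expressed intracellularly from a pBAD plasmid library in pooled LB shake-flask culture, induced with 0.3% L-arabinose, DNA abundance read by NGS, three biological replicates, DESeq2 with apeglm shrinkage.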

In this series the test system is Escherichia coli TOP10. Put plainly: shrunken log2 fold change of peptide-encoding DNA abundance (4.5 h post-induction vs induction); higher = less antimicrobial activity (less host growth inhibition). To be noted: time post-induction: 4.5 h; library: site-saturation at positions 5, 18, 19, 20.
On to RRIRLRPPRLPRPRPRPTHWPRP, for which the “shrunken log2 fold change” value was 0.416.

Turning to RRIRVRPPRLPRPRPRPRYNPRP, the “shrunken log2 fold change” value was -0.381. Consider RRIRVRPPRLPRPRPRPEYDPRP, for which the “shrunken log2 fold change” value is -0.0844. The figure for RRIRSRPPRLPRPRPRPGCGPRP is 0.62. The figure for RRIRIRPPRLPRPRPRPIQCPRP is 0.0629; for RRIRCRPPRLPRPRPRPQFDPRP it is -0.211; for RRIRVRPPRLPRPRPRPVYMPRP it is -0.184. The figure for RRIRQRPPRLPRPRPRPTEHPRP is -0.00172. As for RRIRGRPPRLPRPRPRPNNPPRP, the “shrunken log2 fold change” value is -0.171. The figure for RRIRMRPPRLPRPRPRPHCFPRP is -0.0715; for RRIRQRPPRLPRPRPRPMKVPRP it is 0.0879; for RRIRMRPPRLPRPRPRPEFYPRP it is -0.056. The same measure for RRIRGRPPRLPRPRPRPGWWPRP: 0.113.

In the case of RRIRHRPPRLPRPRPRPKQRPRP, the “shrunken log2 fold change” value was 0.41.

Turning to RRIRGRPPRLPRPRPRPNGDPRP, the “shrunken log2 fold change” value amounted to 0.115.

In the case of RRIRYRPPRLPRPRPRPKHYPRP, the “shrunken log2 fold change” value is -0.895. On to RRIRERPPRLPRPRPRPWHTPRP, for which the “shrunken log2 fold change” value was -0.16. Consider RRIRMRPPRLPRPRPRPFPMPRP, for which the “shrunken log2 fold change” value stood at 0.237.

Regarding RRIRSRPPRLPRPRPRPATSPRP, the “shrunken log2 fold change” value is 0.0483. The figure for RRIRSRPPRLPRPRPRPYKNPRP is -0.399; for RRIRGRPPRLPRPRPRPEIHPRP it is 1.13; for RRIRSRPPRLPRPRPRPRWLPRP it is 0.297.

For RRIRHRPPRLPRPRPRPIQRPRP, the “shrunken log2 fold change” value is -0.204. For RRIRDRPPRLPRPRPRPNIFPRP, the “shrunken log2 fold change” value was -0.0871.

As for RRIRTRPPRLPRPRPRPTTGPRP, the “shrunken log2 fold change” value is -0.191. The same measure for RRIRLRPPRLPRPRPRPHPPPRP: 1; for RRIRVRPPRLPRPRPRPDCTPRP: -0.068. The figure for RRIRVRPPRLPRPRPRPYATPRP is -0.124; for RRIRFRPPRLPRPRPRPIVMPRP it is -0.731; for RRIRSRPPRLPRPRPRPNFCPRP it is 0.0353.

As to RRIRPRPPRLPRPRPRPRQWPRP, the “shrunken log2 fold change” value amounted to 0.485.

Take RRIRMRPPRLPRPRPRPPSQPRP: the “shrunken log2 fold change” value came out at 1.18. The same measure for RRIRCRPPRLPRPRPRPVPPPRP: 0.474.

RRIRMRPPRLPRPRPRPNQHPRP: the “shrunken log2 fold change” value is -0.0206. The figure for RRIRMRPPRLPRPRPRPQSKPRP is 0.0671; for RRIRWRPPRLPRPRPRPNTCPRP it is -0.777. The same measure for RRIRRRPPRLPRPRPRPNAEPRP: 0.0193; for RRIRYRPPRLPRPRPRPFKWPRP: -0.278; for RRIRERPPRLPRPRPRPIHFPRP: -0.00865. The same measure for RRIRWRPPRLPRPRPRPMTMPRP: -0.385. Turning to RRIRARPPRLPRPRPRPVMPPRP, the “shrunken log2 fold change” value came out at 0.457.

Turning to RRIRLRPPRLPRPRPRPCFFPRP, the “shrunken log2 fold change” value is -0.13. The figure for RRIRVRPPRLPRPRPRPTYKPRP is -0.512; for RRIRARPPRLPRPRPRPQTRPRP it is 0.874; for RRIRVRPPRLPRPRPRPYMCPRP it is -0.274. In the case of RRIRIRPPRLPRPRPRPIGGPRP, the “shrunken log2 fold change” value is -0.0686. The same measure for RRIRMRPPRLPRPRPRPWITPRP: -0.00122. Turning to RRIRHRPPRLPRPRPRPKPLPRP, the “shrunken log2 fold change” value worked out at 0.127. RRIRNRPPRLPRPRPRPGWPPRP: the “shrunken log2 fold change” value was determined as 0.541. The figure for RRIRIRPPRLPRPRPRPESMPRP is 0.0174; for RRIRLRPPRLPRPRPRPWLQPRP it is 0.0325; for RRIRGRPPRLPRPRPRPEICPRP it is 1.73. In the case of RRIRSRPPRLPRPRPRPTHWPRP, the “shrunken log2 fold change” value was determined as 0.451. The figure for RRIRMRPPRLPRPRPRPICRPRP is 0.297; for RRIRERPPRLPRPRPRPWLTPRP it is -0.0528; for RRIRGRPPRLPRPRPRPRIDPRP it is 0.731. The figure for RRIRKRPPRLPRPRPRPSWSPRP is -0.075.

Regarding RRIRKRPPRLPRPRPRPCCFPRP, the “shrunken log2 fold change” value is 0.112. The figure for RRIRFRPPRLPRPRPRPGRNPRP is -0.173. Consider RRIRKRPPRLPRPRPRPMGPPRP, for which the “shrunken log2 fold change” value stood at 0.339. The same measure for RRIRARPPRLPRPRPRPWTMPRP: -0.0418; for RRIRPRPPRLPRPRPRPNGSPRP: 0.0884. The figure for RRIRSRPPRLPRPRPRPWTIPRP is -0.133; for RRIRPRPPRLPRPRPRPCYMPRP it is -1.12; for RRIRTRPPRLPRPRPRPAFEPRP it is 0.219.

RRIRVRPPRLPRPRPRPAPFPRP: the “shrunken log2 fold change” value was determined as 0.0259.

In the case of RRIRERPPRLPRPRPRPQWAPRP, the “shrunken log2 fold change” value was -0.0475. The same measure for RRIRERPPRLPRPRPRPIAQPRP: -0.0491; for RRIRMRPPRLPRPRPRPWMCPRP: -0.01.

With RRIRGRPPRLPRPRPRPNIEPRP, the “shrunken log2 fold change” value was determined as 0.51. The same measure for RRIRKRPPRLPRPRPRPVPMPRP: 0.355; for RRIRYRPPRLPRPRPRPLHQPRP: -0.608.

As for RRIRYRPPRLPRPRPRPSSNPRP, the “shrunken log2 fold change” value is -0.634.

Regarding RRIRCRPPRLPRPRPRPLQEPRP, the “shrunken log2 fold change” value was determined as 0.299. For the sequence RRIRHRPPRLPRPRPRPAAWPRP, the “shrunken log2 fold change” value turned out to be 0.465.

Take RRIRIRPPRLPRPRPRPTMFPRP: the “shrunken log2 fold change” value was -0.763. The figure for RRIRIRPPRLPRPRPRPVKLPRP is -0.0316; for RRIRTRPPRLPRPRPRPNVAPRP it is 0.174. On to RRIRNRPPRLPRPRPRPWVAPRP, for which the “shrunken log2 fold change” value is -0.0268.

Take RRIRMRPPRLPRPRPRPRAFPRP: the “shrunken log2 fold change” value was 0.918.

On to RRIRLRPPRLPRPRPRPDCWPRP, for which the “shrunken log2 fold change” value was determined as 0.362. The figure for RRIRQRPPRLPRPRPRPESGPRP is 0.0279; for RRIRHRPPRLPRPRPRPEPTPRP it is 0.179. The same measure for RRIRRRPPRLPRPRPRPNAKPRP: 0.0165; for RRIRARPPRLPRPRPRPTKKPRP: 0.0778; for RRIRTRPPRLPRPRPRPIHDPRP: -0.0511. The same measure for RRIRARPPRLPRPRPRPVDDPRP: 0.469; for RRIRHRPPRLPRPRPRPWGWPRP: 0.284; for RRIRSRPPRLPRPRPRPPPDPRP: 0.848. Take RRIRQRPPRLPRPRPRPFLGPRP: the “shrunken log2 fold change” value was -0.38. As for RRIRSRPPRLPRPRPRPHWAPRP, the “shrunken log2 fold change” value is -0.0673.
